Substitutions are numbered along the chain they refer to. Names and notes keep the numbering of the source.
T1: SecBE77K parent carrying A129C (b) (Escherichia coli, UniProt P0AG86 1-155, E77K | A129C | C102L)
T1 sequence (looked up): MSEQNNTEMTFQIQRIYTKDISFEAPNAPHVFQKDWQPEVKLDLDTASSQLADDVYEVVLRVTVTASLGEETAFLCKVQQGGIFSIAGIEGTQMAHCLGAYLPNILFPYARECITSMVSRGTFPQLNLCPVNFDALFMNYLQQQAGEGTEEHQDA

T2: SecBA129C (A, otherwise wild-type) (Escherichia coli, UniProt P0AG86 1-155, A129C | C102L)
T2 sequence (looked up): T1 sequence (looked up) with K77E

T3: SecBQ12C E77K (B) (Escherichia coli, UniProt P0AG86 1-155, Q12C | E77K | C102L)
T3 sequence (looked up): T1 sequence (looked up) with Q12C, C129A

B1: SecB142 parent carrying Q12C (C) (domain or fragment, Escherichia coli, UniProt P0AG86 1-142, looked up)
chain: MSEQNNTEMTFCIQRIYTKDISFEAPNAPHVFQKDWQPEVKLDLDTASSQLADDVYEVVLRVTVTASLGEETAFLCEVQQGGIFSIAGIEGTQMAHCLGAYLPNILFPYARECITSMVSRGTFPQLNLAPVNFDALFMNYLQ
B2: SecB142,E77K parent carrying Q12C (D) (domain or fragment, Escherichia coli, UniProt P0AG86 1-142, looked up)
chain: B1 chain with E77K
B3: SecB wild-type (natural protein, Escherichia coli, UniProt P0AG86 1-155, looked up)
chain: T1 sequence (looked up) with K77E, L102C, C129A
B4: SecB wild-type parent carrying Q12C (A) (natural protein, Escherichia coli, UniProt P0AG86 1-155, looked up)
chain: T1 sequence (looked up) with Q12C, K77E, C129A
B5: SecB142,E77K parent carrying A129C (d) (domain or fragment, Escherichia coli, UniProt P0AG86 1-142, looked up)
chain: B1 chain with C12Q, E77K, A129C
B6: SecB142 parent carrying A129C (c) (domain or fragment, Escherichia coli, UniProt P0AG86 1-142, looked up)
chain: B1 chain with C12Q, A129C
B7: SecBL75Q (natural protein, Escherichia coli)
chain: MSEQNNTEMTFQIQRIYTKDISFEAPNAPHVFQKDWQPEVKLDLDTASSQLADDVYEVVLRVTVTASLGEETAFQCEVQQGGIFSIAGIEGTQMAHCLGAYCPNILFPYARECITSMVSRGTFPQLNLAPVNFDALFMNYLQQQAGEGTEEHQ

Key:
SecB (Escherichia coli) = SecB (Escherichia coli) (UniProt P0AG86); test: ITC; settings: cited from earlier work
[1] = biological target: T1, SecBE77K parent carrying A129C (b); test: cross-linking
[2] = biological target: T2, SecBA129C (A, otherwise wild-type); test: cross-linking
[3] = biological target: B5; test: cross-linking
[4] = biological target: B6; test: cross-linking
SecA [5] = biological target: T4, SecA (Escherichia coli, UniProt P10408 1-901); test: SEC
AUC = biological target: the molecule itself; test: AUC
[6] = biological target: B4; test: cross-linking
SecBQ12C E77K (B) = biological target: T3, SecBQ12C E77K (B); test: cross-linking
SecA [7] = biological target: T4, SecA; test: SEC-MALS

T4 sequence (P10408 whole entry): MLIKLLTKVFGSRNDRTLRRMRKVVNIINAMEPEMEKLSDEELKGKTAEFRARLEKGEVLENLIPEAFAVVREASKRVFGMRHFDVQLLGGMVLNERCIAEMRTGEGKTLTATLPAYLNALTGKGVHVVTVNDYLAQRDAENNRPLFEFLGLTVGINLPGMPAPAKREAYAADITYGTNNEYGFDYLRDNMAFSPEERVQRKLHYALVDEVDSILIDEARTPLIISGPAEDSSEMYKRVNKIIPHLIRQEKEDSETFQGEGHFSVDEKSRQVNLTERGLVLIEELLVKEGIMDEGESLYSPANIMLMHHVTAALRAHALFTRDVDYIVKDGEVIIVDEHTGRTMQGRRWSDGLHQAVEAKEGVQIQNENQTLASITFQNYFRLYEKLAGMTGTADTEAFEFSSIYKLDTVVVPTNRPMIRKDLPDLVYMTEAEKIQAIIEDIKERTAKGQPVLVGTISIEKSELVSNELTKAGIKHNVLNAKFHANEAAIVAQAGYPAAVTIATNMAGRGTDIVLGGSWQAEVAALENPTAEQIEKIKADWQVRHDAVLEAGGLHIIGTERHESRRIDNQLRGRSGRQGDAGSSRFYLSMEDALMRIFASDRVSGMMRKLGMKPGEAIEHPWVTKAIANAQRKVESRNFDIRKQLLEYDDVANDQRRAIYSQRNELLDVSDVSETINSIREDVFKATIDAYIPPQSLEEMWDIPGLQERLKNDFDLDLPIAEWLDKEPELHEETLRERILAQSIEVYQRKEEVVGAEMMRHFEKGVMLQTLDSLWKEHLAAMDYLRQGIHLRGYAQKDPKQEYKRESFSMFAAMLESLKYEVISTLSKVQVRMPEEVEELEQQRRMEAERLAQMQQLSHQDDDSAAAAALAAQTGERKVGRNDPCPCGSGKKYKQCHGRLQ

Molecule: SecA 2-11 (from UniProt P10408)
Kd (SecB (Escherichia coli)): 30 µM

Molecule: B1
binding result [1]: binds | binding result [2]: binds | binding result [3]: binds

Molecule: B2
binding result [1]: binds | binding result [4]: binds | binding result [2]: binds

Molecule: B3
relative affinity (ratio of Kds) against radiolabeled SecB (SecA [5]): 0.82 unitless | binding result (AUC): binds

Molecule: B4
binding result [2]: binds

Molecule: B5
binding result [6]: binds

Molecule: B6
binding result (SecBQ12C E77K (B)): binds

Molecule: B7
stoichiometry N (SecA [7]): 1 SecA protomers per SecB tetramer

From PMC4370339 (Journal of molecular biology, 2014)
